Experimental data published in PMC3592467.

Target: T1, MBD3-GFP, O95983
T1 chain: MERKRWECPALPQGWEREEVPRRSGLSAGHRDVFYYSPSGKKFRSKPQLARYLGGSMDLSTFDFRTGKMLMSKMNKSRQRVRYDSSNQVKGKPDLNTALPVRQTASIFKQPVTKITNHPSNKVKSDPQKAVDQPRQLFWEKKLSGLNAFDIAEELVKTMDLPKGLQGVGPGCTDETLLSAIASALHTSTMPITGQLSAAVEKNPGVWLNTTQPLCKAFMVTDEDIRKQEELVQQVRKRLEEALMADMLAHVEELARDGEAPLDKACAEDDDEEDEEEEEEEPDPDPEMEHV
Assay: affinity purification with mass spectrometry
Conditions: remark: other sources report otherwise

B1: DOC-1, O14519 1-115 (natural protein)
chain: MSYKPNLAAHMPAAALNAAGSVHSPSTSMATSSQYRQLLSDYGPPSLGYTQGTGNSQVPQSKYAELLAIIEELGKEIRPTYAGSKSAMERLKRGIIHARGLVRECLAETERNARS
For B1, the stoichiometry N was 2 per MBD3.
